The values that follow come from article PMC4769171.

Numbering of substitutions follows the chain as printed.

What all share (settings): EMSA: 10 mM Tris pH 7.5, 50 mM KCl, 2.5% glycerol, 0.05% Nonidet P-40, 1 ug poly(dI-dC), 5 fmol probe, 20 min RT; AFM buffer not in the material
Background: In EMSA bound probe runs differently from free probe, usually more slowly.

The target in data set [1] is T1, K179A His-SsrB K179A (UniProt Q7CQM5).
T1 sequence: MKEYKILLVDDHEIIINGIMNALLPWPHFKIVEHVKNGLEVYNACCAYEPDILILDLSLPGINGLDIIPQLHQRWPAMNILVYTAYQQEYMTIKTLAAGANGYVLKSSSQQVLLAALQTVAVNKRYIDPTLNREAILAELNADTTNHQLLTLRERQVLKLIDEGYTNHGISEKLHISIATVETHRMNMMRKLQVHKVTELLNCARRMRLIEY
Put plainly: EMSA.

For data set [2], the target named is T2, His-H-NS (Salmonella Typhimurium) (UniProt P0A1S2).
T2 sequence: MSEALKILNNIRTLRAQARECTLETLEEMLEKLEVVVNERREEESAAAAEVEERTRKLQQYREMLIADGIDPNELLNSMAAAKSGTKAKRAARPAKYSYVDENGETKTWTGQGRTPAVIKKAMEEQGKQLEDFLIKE
Put plainly: EMSA.

Data set [3] has as its target T3, His-SsrB (unphosphorylated) (UniProt Q7CQM5).
T3 sequence: T1 sequence with A179K
Put plainly: EMSA.

Data set [4] deals with His-SsrB (unphosphorylated);His-H-NS (Salmonella Typhimurium) (UniProt Q7CQM5+P0A1S2). The data set is described as follows: EMSA supershift.

Consider “AATATTTTTCTCTTTCTGGATAATGGGCTATTTCAACCCACAGCAGTGCAACATCTGTCAGTACTTCTGGTGCCTTTATTTTATGGGGGCAGCTGTCAGATGTGCGATTAAAAAAAGTGGAGTTTCATCA (double strand) [csgD122]”, for which the binding entry in data set [1] was “no binding”; in data set [2] it was “binds”; in data set [3], “binds”; in data set [4] it was “binds”.
